Measurements from patent US20200069775A1, “BRAIN OSTEOCALCIN RECEPTOR AND COGNITIVE DISORDERS” (The Trustees of Columbia University in the City of New York, priority 2017, published 2020).

Biological target: T1, Gpr158 (Mus musculus, UniProt Q8C419)
T1 sequence (Q8C419 25-1200): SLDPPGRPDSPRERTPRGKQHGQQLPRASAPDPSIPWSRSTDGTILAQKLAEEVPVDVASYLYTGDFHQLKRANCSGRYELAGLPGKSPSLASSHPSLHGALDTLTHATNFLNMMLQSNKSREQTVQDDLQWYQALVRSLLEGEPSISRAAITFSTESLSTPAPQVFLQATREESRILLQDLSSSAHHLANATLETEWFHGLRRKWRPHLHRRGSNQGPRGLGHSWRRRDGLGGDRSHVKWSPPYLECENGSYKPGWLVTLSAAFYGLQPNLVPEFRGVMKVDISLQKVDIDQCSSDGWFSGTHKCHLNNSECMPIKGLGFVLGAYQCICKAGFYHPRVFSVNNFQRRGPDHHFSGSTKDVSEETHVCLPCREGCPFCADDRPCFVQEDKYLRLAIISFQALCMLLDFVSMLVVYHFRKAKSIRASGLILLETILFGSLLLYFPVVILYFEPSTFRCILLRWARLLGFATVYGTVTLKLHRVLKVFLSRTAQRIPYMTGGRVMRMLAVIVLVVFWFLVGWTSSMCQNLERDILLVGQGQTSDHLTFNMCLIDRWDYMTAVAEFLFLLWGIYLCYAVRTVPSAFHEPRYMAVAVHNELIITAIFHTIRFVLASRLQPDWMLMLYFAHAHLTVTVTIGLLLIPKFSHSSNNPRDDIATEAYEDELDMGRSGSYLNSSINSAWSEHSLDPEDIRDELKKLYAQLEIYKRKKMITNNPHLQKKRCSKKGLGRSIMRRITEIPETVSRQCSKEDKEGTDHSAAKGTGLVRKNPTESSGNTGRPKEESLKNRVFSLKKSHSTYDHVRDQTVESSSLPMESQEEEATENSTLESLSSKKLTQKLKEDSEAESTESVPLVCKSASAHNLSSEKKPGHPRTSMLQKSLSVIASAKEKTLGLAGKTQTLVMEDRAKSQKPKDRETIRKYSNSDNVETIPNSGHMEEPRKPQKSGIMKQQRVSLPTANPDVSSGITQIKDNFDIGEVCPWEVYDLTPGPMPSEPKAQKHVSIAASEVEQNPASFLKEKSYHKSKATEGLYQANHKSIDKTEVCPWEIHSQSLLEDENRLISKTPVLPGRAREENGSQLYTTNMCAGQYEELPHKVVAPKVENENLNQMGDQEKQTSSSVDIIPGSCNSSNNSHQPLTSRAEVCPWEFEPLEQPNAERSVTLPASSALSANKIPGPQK
Assay: Hippocampal lentiviral sh-Gpr158 knockdown followed by osteocalcin injection, NOR and CFC
Format: in vivo
Design: from tissue; host or cells: anterior hippocampus of living 3-month-old C57BL/6J male mice
Description: Mice were anesthetized with intra-peritoneal injection of […] (Rompun 2%; Bayer) and placed in a stereotaxic frame (900SL-KOPF). Ophthalmic eye ointment was applied to the cornea to prevent desiccation during surgery. The area around the incision was trimmed and Vetedine solution (Vetoquinol) was appplied. Lentiviruses expressing shRNA targeting Gpr158 or non-effective scramble shRNA in pGFP-C-shLentiVector were injected bilaterally into the anterior hippocampi using the following coordinates: (from bregma) anterior=−2.0 mm, lateral=+/−1.4 mm and height=-1.33 mm. Coordinates were determined using the Mouse Brain in Stereotaxic Coordinates (Paxinos and Franklin, 2008). Two weeks later, osteocalcin (10 ng) or NaCl were injected using the same coordinates. […]
Novel object recognition test (NOR): The NOR paradigm assesses the rodent's ability to recognize a novel object in the environment. […] These objects elicit equal levels of exploration as determined in pilot experiments (Denny, C. A., et al., 2012, Hippocampus 22:1188-1201; Oury, F., et al., 2013, Cell 155:228-241). […] Preference for the novel object is assessed based on the fraction of time that a mouse spends exploring the novel object compared to the familiar object. Exploration is scored from video recordings of each exposure and recorded using the Stopwatch program. […]

Substance: osteocalcin: Recombinant osteocalcin bacterially produced, cleaved from the GST subunit; completely undercarboxylated at all three sites; full-length mouse osteocalcin (YLGASVPSPDPLEPTREQCELNPACDELSDQYGLKTAYKRIYGITI)
- memory performance (NOR) (control (scrambled shRNA) mice, osteocalcin 10 ng in anterior hippocampus): enhanced memory performance
- contextual fear conditioning (CFC) (sh-control vs sh-Gpr158 mice, osteocalcin 10 ng): A similar result was obtained
